# Test results: patent US20190241648A1 (STATEN BIOTECHNOLOGY B V, published 2019)
# Ends that are not written are not given here.
# T1: ApoC3 peptide … F47A (human, not fully specified (bridges); also: cyclic constrained)
# T1 peptide: ARGWVTDGASSLK
# T2: ApoC3 peptide … S48A (human, thioether (positions not given here); also: cyclic constrained)
# T2 peptide: ARGWVTDGFASLK
# T3: ApoC3 peptide … G46D (human, also: cyclic constrained)
# T3 peptide: ARGWVTDDFSSLK
# T4: ApoC3 peptide … F47E (human, not fully specified (bridges); also: cyclic constrained)
# T4 peptide: ARGWVTDGESSLK
# T5: ApoC3 peptide … G46F (human, not fully specified (bridges); also: cyclic constrained)
# T5 peptide: ARGWVTDFFSSLK
# T6: ApoC3 peptide … L50G (human, not fully specified; cyclic constrained)
# T6 peptide: ARGWVTDGFSSGK
# T7: ApoC3 peptide … T44H (human, not fully specified (bridges); also: cyclic constrained)
# T7 peptide: ARGWVHDGFSSLK
# T8: ApoC3 peptide … F47H (human, not fully specified (bridges); also: cyclic constrained)
# T8 peptide: ARGWVTDGHSSLK
# T9: ApoC3 peptide … K51H (human, not fully specified; cyclic constrained)
# T9 peptide: ARGWVTDGFSSLH
# T10: ApoC3 peptide … W42K (human, not fully specified (bridges); also: cyclic constrained)
# T10 peptide: ARGKVTDGFSSLK
# T11: ApoC3 peptide … L50K (human, not fully specified; cyclic constrained)
# T11 peptide: ARGWVTDGFSSKK
# T12: ApoC3 peptide … R40L (human, not fully specified (bridges); also: cyclic constrained)
# T12 peptide: ALGWVTDGFSSLK
# T13: ApoC3 peptide … W42L (human, not fully specified (bridges); also: cyclic constrained)
# T13 peptide: ARGLVTDGFSSLK
# T14: ApoC3 peptide … F47L (human, not fully specified (bridges); also: cyclic constrained)
# T14 peptide: ARGWVTDGLSSLK
# T15: ApoC3 peptide … A39M (human, cyclic constrained)
# T15 peptide: MRGWVTDGFSSLK
# T16: ApoC3 peptide … K51M (human, not fully specified; cyclic constrained)
# T16 peptide: ARGWVTDGFSSLM
# T17: ApoC3 peptide … W42N (human, not fully specified (bridges); also: cyclic constrained)
# T17 peptide: ARGNVTDGFSSLK
# T18: ApoC3 peptide … K51Q (human, not fully specified; cyclic constrained)
# T18 peptide: ARGWVTDGFSSLQ
# T19: ApoC3 peptide … R40S (human, not fully specified (bridges); also: cyclic constrained)
# T19 peptide: ASGWVTDGFSSLK
# T20: ApoC3 peptide … W42S (human, not fully specified (bridges); also: cyclic constrained)
# T20 peptide: ARGSVTDGFSSLK
# T21: ApoC3 peptide … L50T (human, not fully specified (bridges); also: cyclic constrained)
# T21 peptide: ARGWVTDGFSSTK
# T22: ApoC3 peptide … A39V (human, not fully specified (bridges); also: cyclic constrained)
# T22 peptide: VRGWVTDGFSSLK
# T23: ApoC3 peptide … T44V (human, not fully specified (bridges); also: cyclic constrained)
# T23 peptide: ARGWVVDGFSSLK
# T24: ApoC3 peptide … G46V (human, thioether (positions not given here); also: cyclic constrained)
# T24 peptide: ARGWVTDVFSSLK
# T25: ApoC3 peptide … L50V (human, not fully specified (bridges); also: cyclic constrained)
# T25 peptide: ARGWVTDGFSSVK
# T26: ApoC3 peptide … R40W (human, thioether (positions not given here); also: cyclic constrained)
# T26 peptide: AWGWVTDGFSSLK
# T27: ApoC3 peptide … A39Y (human, not fully specified (bridges); also: cyclic constrained)
# T27 peptide: YRGWVTDGFSSLK
# Assays:
# Test in all cases: peptide microarray
# [1] = target: T1, ApoC3 peptide … F47A
# How it was run: (§1)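 Peptide microarrays of ApoC3-derived peptides incubated with antibody samples, then stained with goat anti-human IgG (Fc) DyLight680 (1:5000) and anti-HA DyLight800 (1:2000) control. Read-out by fluorescence scanning at intensities 7/7 (red/green); a secondary-only pre-stain checked background, HA frame peptides served as quality control.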
# [2] = target: T2, ApoC3 peptide … S48A
# How it was run: as §1
# [3] = target: ApoC3 peptide … S49C (human, cyclic constrained)
# How it was run: as §1
# [4] = target: T3, ApoC3 peptide … G46D
# How it was run: as §1
# [5] = target: ApoC3 peptide … S49D (human, cyclic constrained)
# How it was run: as §1
# [6] = target: T4, ApoC3 peptide … F47E
# How it was run: as §1
# [7] = target: T5, ApoC3 peptide … G46F
# How it was run: as §1
# [8] = target: T6, ApoC3 peptide … L50G
# How it was run: as §1
# [9] = target: T7, ApoC3 peptide … T44H
# How it was run: as §1
# [10] = target: T8, ApoC3 peptide … F47H
# How it was run: as §1
# [11] = target: T9, ApoC3 peptide … K51H
# How it was run: as §1
# [12] = target: T10, ApoC3 peptide … W42K
# How it was run: as §1
# [13] = target: T11, ApoC3 peptide … L50K
# How it was run: as §1
# [14] = target: T12, ApoC3 peptide … R40L
# How it was run: as §1
# [15] = target: T13, ApoC3 peptide … W42L
# How it was run: as §1
# [16] = target: T14, ApoC3 peptide … F47L
# How it was run: as §1
# [17] = target: T15, ApoC3 peptide … A39M
# How it was run: as §1
# [18] = target: T16, ApoC3 peptide … K51M
# How it was run: as §1
# [19] = target: T17, ApoC3 peptide … W42N
# How it was run: as §1
# [20] = target: T18, ApoC3 peptide … K51Q
# How it was run: as §1
# [21] = target: T19, ApoC3 peptide … R40S
# How it was run: as §1
# [22] = target: T20, ApoC3 peptide … W42S
# How it was run: as §1
# [23] = target: T21, ApoC3 peptide … L50T
# How it was run: as §1
# [24] = target: T22, ApoC3 peptide … A39V
# How it was run: as §1
# [25] = target: T23, ApoC3 peptide … T44V
# How it was run: as §1
# [26] = target: T24, ApoC3 peptide … G46V
# How it was run: as §1
# [27] = target: ApoC3 peptide … S48V (human, cyclic constrained)
# How it was run: as §1
# [28] = target: T25, ApoC3 peptide … L50V
# How it was run: as §1
# [29] = target: T26, ApoC3 peptide … R40W
# How it was run: as §1
# [30] = target: ApoC3 peptide … S48W (human, cyclic constrained)
# How it was run: as §1
# [31] = target: T27, ApoC3 peptide … A39Y
# How it was run: as §1
binder,measurement,setting,value
"anti-ApoC3 antibody 14C7 (antibody, V domains shown, it was detected with goat anti-human IgG (Fc); also called mAb 14C7; llama antibody 14C7) VH: QVQVQESGPGLVKPSQTLSLTCTVSGGSITTNSYYWSWIRQPPGKGLEWMGAIDYSGDTYYSPSLKSRTSISRDTSKNQFTLQLTSVTPEDTAVYYCVSRIPTGEYWGQGTQVTVSS VL: QTVVTQEPSLSVSPGGTVTLTCGLNSGSVTSSNYPDWYQQTPGQAPRLLIYNTNSRHSGVPSRFSGSISGNKAALTITGAQPEDEADYYCALYMGSDSVVFGGGTHLTVL",% of binding to wild-type peptide,[1],0%
same,% of binding to wild-type peptide,[2],75.5%
same,% of binding to wild-type peptide,[3],0%
same,% of binding to wild-type peptide,[4],0%
same,% of binding to wild-type peptide,[5],0%
same,% of binding to wild-type peptide,[6],0%
same,% of binding to wild-type peptide,[7],0.86%
same,% of binding to wild-type peptide,[8],0%
same,% of binding to wild-type peptide,[9],0.92%
same,% of binding to wild-type peptide,[10],0%
same,% of binding to wild-type peptide,[11],2.43%
same,% of binding to wild-type peptide,[12],136%
same,% of binding to wild-type peptide,[13],0.74%
same,% of binding to wild-type peptide,[14],54.2%
same,% of binding to wild-type peptide,[15],312%
same,% of binding to wild-type peptide,[16],4.56%
same,% of binding to wild-type peptide,[17],90.7%
same,% of binding to wild-type peptide,[18],11.1%
same,% of binding to wild-type peptide,[19],118%
same,% of binding to wild-type peptide,[20],5.47%
same,% of binding to wild-type peptide,[21],54.7%
same,% of binding to wild-type peptide,[22],204%
same,% of binding to wild-type peptide,[23],0%
same,% of binding to wild-type peptide,[24],76%
same,% of binding to wild-type peptide,[25],4.26%
same,% of binding to wild-type peptide,[26],0%
same,% of binding to wild-type peptide,[27],45.3%
same,% of binding to wild-type peptide,[28],0.74%
same,% of binding to wild-type peptide,[29],38.8%
same,% of binding to wild-type peptide,[30],3.49%
same,% of binding to wild-type peptide,[31],40.5%
